Assay results as given in US7479482B2 (priority 2001, dated 2009).
Where two headings read alike, the source gives them in different places.

Key:
[1] = type: physicochemical
Tg2576 mice = details: mouse, in vivo
[2] = tested on: human neuroblastoma cell line (SK-N-SH)

Substance: Aβ1-42: amyloid β peptide 1-42, control peptide and comparison immunogen
- alpha (secondary structure by CD) ([1]; Time 0 hr): 9%
- beta-sheet (secondary structure by CD) ([1]; Time 0 hr): 36%
- random (secondary structure by CD) ([1]; Time 0 hr): 55%
- alpha (secondary structure by CD) ([1]; Time 24 hr): 9%
- beta-sheet (secondary structure by CD) ([1]; Time 24 hr): 40%
- random (secondary structure by CD) ([1]; Time 24 hr): 51%
- alpha (secondary structure by CD) ([1]; Time 96 hr): 5%
- beta-sheet (secondary structure by CD) ([1]; Time 96 hr): 55%
- random (secondary structure by CD) ([1]; Time 96 hr): 40%
- radial arm maze skills (Tg2576 mice): had the radial arm maze skills of the positive control
- aggregates visible under the microscope in culture wells [2]: aggregates were visible
- toxicity to neuroblastoma cells (MTT) [2]: toxic
